Measurements: patent US8329429B2, “Method of enhancing recombinant protein production” (Induce Biologics Inc., priority 2007, dated 2012)

Experiments:
[1] = system: CHO-BMP-2 cells; type: cell-based, Chinese hamster
Procedure: Cell viability was assessed at each media collection using a ViCell cell viability analyzer (Beckman) following manufacturer's instructions.

[2] = system: CHO-hBMP-7 cells; assay: ELISA for hBMP-7 in conditioned medium from CHO-hBMP-7 cells incubated with 9DR; type: cell-based, Chinese hamster; conditions: 24 hours, nutrient control
Procedure: Cell lines expressing the hBMP-7 transgene were prepared as per the methods described in Example 1.
Stable CHO cell lines expressing wild type BMP-7 cDNA were seeded into single wells of 24 well plates and cultured in the presence of increasing concentrations of the furin inhibitor 9DR. The conditioned medium was collected and aliquots were assayed for the presence of […] by ELISA. The amount of proBMP-7 present in the samples was estimated by western blot. Other aliquots of conditioned media were diluted with fresh medium and added to C2C12 cells to test for in vitro osteoinductive biological activity.

[3] = system: C2C12 cells; assay: C2C12 alkaline phosphatase assay of rhBMP after PreScission digestion; type: cell-based; conditions: for ALP activity (U/μg protein) mean ± SD: n=4
Text: Alkaline phosphatase induction in C2C12 cells: The activity of recombinant hBMP-2 protein is quantitated based upon induction of alkaline phosphatase in in vitro cultured C2C12 cells, as has been described (see, e.g., Peel et al. J Craniofacial Surg. 2003; 14:284-291 and Hu et al. Growth Factors 2004; 22:29033).
C2C12 cells (ATCC accession number CRL-1772, Manassas, Va.) are passaged before confluent and resuspended at 0.5×10^5 cells/ml in MEM supplemented with 15% heat-inactivated fetal bovine serum, antibiotics and 50 μg/ml ascorbic acid. One ml of cell suspension is seeded per well of a 24 well tissue culture plate (BD Falcon, Fisher Scientific Cat #08-772-1). An aliquot of test BMP-2 sample is added and the cultures maintained at 37° C. and 5% CO2. Test BMP-2 samples included conditioned media, purified recombinant hBMP-2 isolated from conditioned media by heparin affinity chromatography, and as a positive control a commercially available purified recombinant hBMP-2 (R&D Systems, Minneapolis, USA). Control cultures (cultured in media without added BMP-2 sample) are cultured for 2 to 7 days. Medium is changed every two days.
At harvest cultures are rinsed with Tris buffered saline (20 mM Tris, 137 mM NaCl, pH 7.4) and M-Per lysis buffer (Pierce Biotechnology Inc., Rockford, Ill., catalogue #78501) is added. The cell layer is scraped into Eppendorf tubes and sonicated. The lysate is centrifuged at 5000×g at 5° C. for 10 minutes, and the supernatant assayed for alkaline phosphatase (ALP) by monitoring the hydrolysis of nitrophenol phosphate in alkaline buffer (Sigma-Aldrich, St. Louis Mo., catalog P5899) as described in Peel et al. J Craniofacial Surg. 2003; 14:284-291 or by using the Alkaline Phosphatase detection kit, Fluorescence (Sigma-Aldrich, catalogue #APF) according to manufacturer's instructions. To normalize the ALP activity the cellular protein content in each well is also assayed using the Coomasie (Bradford) Protein Assay (Pierce Biotechnology Inc., catalogue #23200). The normalized ALP activity for each sample is calculated by dividing the ALP activity per well by the protein content per well. An activity score is calculated by dividing the ALP activity for each sample by the mean ALP activity of the control and is compared to the score achieved by the positive BMP control.
Preparation of test materials: PreScission protease was obtained from Amersham Biosciences (GE Healthcare, Buckinghamshire, U.K) and was prepared according to the manufacturer's instructions. Recombinant hBMP-2 and rhBMP-7 (both CHO cell produced) were obtained from R&D Systems. The rhBMP samples were resuspended in 4 mM HCl to a final concentration of 10 μg/ml. Bovine serum albumin (BSA) was not included so that the only substrate for the protease was BMP. The cleavage buffer was prepared (50 mM Tris-HCl, 150 mM NaCl, 1 mM EDTA, pH 7).
Assessment of activity: Samples underwent digestion at room temperature for 6 hours. Reactions were stopped by freezing at −20° C. Digestion samples were diluted in alpha MEM+15% FBS and tested for BMP activity using the C2C12 assay described in Example 1.

N=C(N)NCCC[C@@H](N)C(=O)N[C@H](CCCNC(=N)N)C(=O)N[C@H](CCCNC(=N)N)C(=O)N[C@H](CCCNC(=N)N)C(=O)N[C@H](CCCNC(=N)N)C(=O)N[C@H](CCCNC(=N)N)C(=O)N[C@H](CCCNC(=N)N)C(=O)N[C@H](CCCNC(=N)N)C(=O)N[C@H](CCCNC(=N)N)C(N)=O [9DR, nona-D-arginine amide]
effect on cell viability [1]: did not affect cell viability

N=C(N)NCCC[C@@H](N)C(=O)O [DR, D arginine]
mature hBMP-7 in medium versus medium only [2]: no difference

B1: rhBMP-7: recombinant human BMP-7, CHO cell produced, obtained from R&D Systems (protein)
chain: STGSKQRSQNRSKTPKNQEALRMANVAENSSSDQRQACKKHELYVSFRDLGWQDWIIAPEGYAAYYCEGECAFPLNSYMNATNHAIVQTLVHFINPETVPKPCCAPTQLNAISVLYFDDSSNVILKKYRNMVVRACGCH
ALP activity (U/μg protein) mean ± SD ([3]; group 2: 20 μl rhBMP (10 μg/ml), no protease, no cleavage buffer (unincubated)): 7.1 ± 0.5 U/μg protein
ALP activity (U/μg protein) mean ± SD ([3]; group 3: 20 μl rhBMP + 15 μl PreScission protease + 165 μl cleavage buffer, room temperature 6 hours): 2.9 ± 0.2 U/μg protein
ALP activity (U/μg protein) mean ± SD ([3]; group 4: 20 μl rhBMP + 180 μl cleavage buffer alone, room temperature 6 hours): 4.0 ± 0.3 U/μg protein
activity after PreScission digestion ([3]; room temperature for 6 hours): remained active
activity after PreScission digestion compared to control BMP incubated in cleavage buffer alone ([3]; room temperature for 6 hours): No loss of activity
